Laboratory results as given in the supplement of paper PMC10567573.

B1: MGC27345 (parent)
chain: KYMPHLCQDSSGEVSCQCQLHPPR

Variants of: B1
Experiment: protein stability index of a GFP-peptide fusion (GPS, HEK-293T) (PSI 1-6); higher = more stable
Details: c terminus: a fixed tail appended
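Further: lentivirally expressed fusions sorted by FACS into six bins by GFP to DsRed ratio, PSI derived from sequencing read proportions per bin multiplied by bin number.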

Protein stability index of substitutions, site by site:
P22: S 2.55; Q 2.64; A 2.66
S15: G 2.14; R 1.63; K 2.8; L 1.72; H 1.64; Y 2.22; P 2.67; E 3.32; C 2.28; F 1.67
K1: D 2.56; N 1.73; A 1.82; C 3.03; G 2.25; E 2.06; R 2.24; V 2.43; T 1.9
M3: S 2.27; T 1.96; N 2.55; C 2.94; V 2.32; F 1.99; Y 2.22; L 2.67; E 2.25; H 2.28; D 2.34
R24: W 2.89; D 4.59; G 4.32; Y 3.87; Q 4.05; N 4.28; A 3.79; S 4.29
S10: N 2.08; P 2.05; C 2.73; A 2.06; F 2.65; Q 2.26; T 1.97
H5: A 1.8; W 3.69; G 1.45; E 2.3
L6: R 2.05; P 1.57; G 2.66; A 1.73; C 2.39; K 2.14; N 1.79; E 2.71; D 2.64; Q 2.47
Q17: D 2.83; G 1.62; K 3.52; W 2.6; N 1.47; I 1.76; Y 1.76; H 1.74; L 2.17
C7: L 1.85; N 1.27; D 2.11; H 1.85; E 1.77; Q 2.1; W 1.75
C18: H 2.94; E 3.62; R 3; V 3.48; P 3.55; N 4.32; Y 1.69; Q 3.6
Q19: T 2.36; D 2.25; N 2.63; C 2.07; H 1.52; V 1.96; P 3.84
Q8: A 2.65; E 1.97; D 2.6; H 2.03; P 2.15; G 2.42
S11: N 2.55; L 2.04; M 2.12; Q 1.63; E 2.42; W 1.28
L20: S 2.49; D 2.73; N 2.56; Y 2.05; W 1.82; Q 2.34; F 2.13
P23: F 2.32; W 2.34; H 2.66; I 2.24; M 2.2; T 2.02; N 2.85; V 2.87; L 2.38; D 3.71
Y2: R 2.16; C 2.44; V 2.23; F 1.86; N 3.13; H 2.51; P 1.79
V14: S 2.88; E 3.31; H 2.48; W 2.42; M 2.23; Y 2.08; A 3.06; L 1.97; D 2.25
E13: I 1.99; D 2.57; W 1.03; Q 1.74
G12: Q 2.8; E 2.1; C 2.38; N 1.67; A 2; K 1.59; T 1.87; Y 1.53
H21: T 3.51; D 2.6; K 2.7; C 2.65; S 2.86
P4: R 1.9; S 1.71
C16: Y 3.13; K 3.58; Q 3.99; F 2.16; P 3.31; H 3.05; D 3.88
D9: Y 1.67; C 2.97; S 1.82
